{"source": "patent US7037663B2", "about": "“Human zona pellucida protein 3 and uses thereof” (Eastern Virginia Medical School, priority 1998, dated 2006)", "key": {"[1]": {"assay": "Aggregation of purified glycoprotein on freezing", "format": "physicochemical", "conditions": "freezing the purified product", "from_the_text": "In the zona pellucida, ZP3 associates with ZP2 and ZP1 to form a network structure (Wassarman, 1988). This network structure prevents aggregation of these glycoproteins. However, in solution these glycoproteins tend to aggregate together. This phenomenon has been observed in several recombinant glycoproteins, including ZP3 (Champan and Barratt, 1997). In purifying rhZP3, we have avoided this problem by obtaining a highly purified product, and testing its biological activities within a week-period while maintaining the protein at 4° C. […] This problem becomes worse as larger amounts of the glycoprotein are trying to be produced. Different strategies are being looked into in order to produce and purify large amounts of biologically active rhZP3 in our laboratory."}, "[2]": {"assay": "Isoelectric focusing electrophoresis", "format": "physicochemical", "conditions": "ampholytes pH 3-10 and pH 4-8", "protocol": "For further biochemical analysis, isoelectric focusing electrophoresis was performed. Approximately five microgram of recombinant ZP3 was loaded into an isoelectrophoresis tube with ampholytes (pH 3-10) in a wide range, and ampholytes (pH 4-8) in a narrow range. The same amount protein sample isolated from the PA-1 cells without transfected with hZP3 cDNA was used as a control."}, "[3]": {"tested_on": "sperm-zona pellucida binding", "assay": "Competitive hemizona assay (HZA), second series", "format": "cell-based, human", "protocol": "Measurement of sperm-zona pellucida binding-Salt-stored, immature (prophase I) human oocytes were used in the experiments. Oocytes were desalted and microbisected into matching halves (hemizonae) using a micromanipulator (Narishige, Tokyo, Japan) following techniques published elsewhere (10, 11, 19). Control and test sperm droplets (100 μl each of a final dilution of 0.5×10^6 motile sperm/ml 1 hour post-swim-up) were incubated separately under heavy mineral oil (Sigma) with a hemizona from the same matching pair for 4 hours at 37° C. in 5% CO2 in humidified air. After the co-incubation period, the hemizonae were washed to remove loosely attached sperm using a finely drawn glass pipette, and the sperm tightly bound to the outer zona surface were counted under phase microscopy (×200). The hemizona assay index (HZI) was calculated as follows: # of sperm bound for test sample/# of sperm bound for control sample×100. An HZI of 100 indicates no inhibition whereas an HZI of 0 reflects complete inhibition of binding.\nSwim up sperm were incubated with rhZP3 (test, at a final concentration of 0, 10, 30, 100, 250, 500 or 2,000 ng/ml of protein) or in culture medium (control) for 30 min under identical conditions. After 30 min, a hemizona was added to the test sperm droplet whereas the matching hemizona from the same pair was added to the control sperm droplet. Three pairs of matching hemizonae were tested per rhZP3 concentration per semen sample in a total of three ejaculates from different donors.\nAdditional competitive HZAs were performed where the test sperm droplet (rhZP3) was assessed against control sperm droplets of culture medium from non-transfected PA-1 cells (NT). Also, competitive HZAs were carried out where the test sperm droplet (culture medium from non-transfected PA-1 cells, NT) was assayed against sperm culture medium. Three pairs of matching hemizonae were tested per dose per experiment in a total of three different ejaculates. These studies were carried out in order to examine the specificity of the effect of the rhZP3."}}, "note": "Values joined by “and” are separate entries in the source; they are usually repeats but may differ in a detail not shown here. Equal values may be shown once. Read-outs that look alike come from different tables or passages of the source."}
{"molecule": "rhZP3: recombinant human zona pellucida protein 3 with six-histidine tail, expressed in human ovarian PA-1 cells; secreted glycoprotein of approximately 65 Kd (protein) QPLWLLQGGASHPETSVQPVLVECQEATLMVMVSKDLFGTGKLIRAADLTLGPEACEPLVSMDTEDVVRFEVGLHECGNSMQVTDDALVYSTFLLHDPRPVGNLSIVRTNRAEIPIECRYPRQGNVSSQAILPTWLPFRTTVFSEEKLTFSLRLMEENWNAEKRSPTFHLGDAAHLQAEIHTGSHVPLRLFVDHCVATPTPDQNASPYHTIVDFHGCLVDGLTDASSAFKVPRPGPDTLQFTVDVFHFANDSRNMIYITCHLKVTLAEQDPDELNKACSFSKPSNSWFPVEGSADICQCCNKGDCGTPSHSRRQPHVMSQWSRSASRNHHHHHH", "values": [{"measurement": "aggregation on freezing (in words)", "setting": "[1]", "value": "problems of aggregation of the glycoprotein as we attempted freezing the product"}, {"measurement": "isoelectric point (PI)", "setting": "[2]", "value": "4.60±0.05 and ~5.60"}, {"measurement": "isoelectric point (PI)", "setting": "[2]; listed as recombinant human ZP3", "value": "4.6±0.05"}, {"measurement": "concentration range of highest (maximal) inhibition of binding", "setting": "[3]", "value": "500 to 2000", "unit": "ng/mL"}, {"measurement": "minimally effective dose, inhibition of binding under HZA conditions", "setting": "[3]; 30 min pre-incubation", "value": 30, "unit": "ng/mL"}, {"measurement": "highest inhibition of binding", "setting": "[3]; in the range of 500-2,000 ng/ml", "value": "approximately 70%"}, {"measurement": "concentration range of highest (maximal) inhibition of binding", "setting": "[3]; listed as Recombinant hZP3", "value": "500-2,000 ng/ml"}, {"measurement": "HZI (Hemizona index)", "setting": "[3]; test reagent 30 ng/mL versus 30 ng/mL NT", "value": "44.5 ± 3.6"}, {"measurement": "HZI (Hemizona index)", "setting": "[3]; test reagent 30 ng/mL versus Ham's F-10/0.5% HSA", "value": "43.6 ± 3.3"}, {"measurement": "HZI (Hemizona index)", "setting": "[3]; test reagent 500 ng/mL versus 500 ng/mL NT", "value": "41.8 ± 1.9"}, {"measurement": "HZI (Hemizona index)", "setting": "[3]; test reagent 500 ng/mL versus Ham's F-10-0.5% HSA", "value": "38.0 ± 2.7"}]}
